These results are taken from patent publication US20050002904A1, “Uses of vascular endothelial growth factor and type I collagen inducible protein (VCIP)” (priority 2003, published 2005).

Where no end group is shown, it is not given here.

One test has as its target α2β1 integrin (Homo sapiens, UniProt P05556+P17301). In words: Solid phase ligand binding assay (ELISA). To be noted: immobilized integrin, GST-fusion ligand in solution. As to the method: (§1) FIG. 10A: Affinity purified GST-fusion proteins were resolved on SDS±PAGE and stained with Coomassie Blue. FIG. 10B: Integrins were immobilized onto 96-well plates, and various GST-fusion proteins (ligands) were allowed to bind. Bound ligands were incubated with anti-GST antibodies, appropriate substrate added and the color intensity measured. OD values <0.05 were considered to be background binding. Data are expressed as mean±SD (n=4). FIG. 10C: Dose-dependent binding of αvβ3 integrin with recombinant GST-VCIP-RGD. FIGS. 10D-F: Representative photomicrographs of adhesion and spreading of endothelial cells replated onto dishes coated with either […]. Cells were allowed to attach for 45 min, washed with PBS and stained with H&E. Magnification, 100×. Bar, 25 μm. FIG. 10G: Adhesion blocking assays. Endothelial cells were replated onto dishes coated with increasing concentrations of affinity purified fusion proteins (1, 5 and 10 nM). Attached cells were stained, washed and absorbances of eluted dyes measured. To determine the effects of anti-integrin antibodies, dishes were coated with 10 nM GST-VCIP-RGD. Endothelial cells were pre-incubated at 4° C. with increasing concentrations of anti-α5β1 (P1D6), anti-αvβ3 (LM609), anti-α2β1 (MAB 1998) and anti-α3β1 (P1B5) monoclonal antibodies (1, 5 and 10 μg/ml) for 30 min, then washed and replated onto coated dishes. Attached cells were stained, washed and absorbances of eluted dyes determined. Three independent experiments were performed with several replicate samples in each experiment. Data are expressed as mean±S.D.; diamond, P<0.01; asterisk, P<0.001. FIG. 10H: Clarified extracts prepared from [^35S]Cys/Met-labeled HdMVEC were pre-adsorbed and incubated with GST-VCIP-RGD in the absence (−) or presence (+) of GRGDSP peptide (lanes 1 and 2). The presence of αvβ3 and α5β1 integrins (lanes 5 and 6) in GST-VCIP pull-down complex (lane 1) was confirmed by incubating aliquots of dissociated complex with the indicated antibodies. Anti-mouse IgG was included as negative control (lane 3).
(§2) Solid phase ligand binding assays were performed according to a previously published procedure (Orlando and Cheresh, 1991). Briefly, soluble α2β1, α5β1, αvβv3 and αvβ5 integrins (1 μg/ml in a solution containing 20 mM Tris pH 7.4, 150 mM NaCl, 1 mM CaCl2, 1 mM MgCl2 and 1 mM MnCl2) were immobilized onto 96-well microtiter plates at 4° C. Wells were washed and blocked with 0.5% BSA. After washing, GST, GST-VCIP-RGD and GST-VCIP-RGE ligands were added (50-350 ng per well in a solution of TBS pH 7.4) and incubated at 37° C. for 1 h. After washing, the wells were incubated with the anti-GST (sc-138, Santa Cruz) monoclonal antibody for 1 h, followed by washing and incubation with a horseradish peroxidase (HRP)-conjugated mouse secondary antibody. Plates were then washed again and the ABTS substrate (Bio-Rad) was added. All washing steps were carried out using PBS. Absorbances were read at 405 nm, and non-specific binding values were adjusted against BSA.
(§3) To determine whether GST-VCIP-RGD could interact with various integrins, a solid-phase ligand binding assay was performed.
(ELISA stands for enzyme-linked immunosorbent assay.)

In the next test the target is α5β1 integrin (Homo sapiens, UniProt P05556+P08648). In words: Solid phase ligand binding assay (ELISA). To be noted: immobilized integrin, GST-fusion ligand in solution. As to the method:
as §1, §2, §3

A further test has as its target αvβ3 integrin (Homo sapiens, UniProt P05106+P06756). In words: Solid phase ligand binding assay (ELISA). As to the method: as §1, §2, §3
In another test the target is αvβ5 integrin (Homo sapiens, UniProt P06756+P18084). In words: Solid phase ligand binding assay (ELISA). Particulars: immobilized integrin, GST-fusion ligand in solution. As to the method: as §1, §2, §3
αvβ5 integrin, sequence (P06756 31-889 limits assumed): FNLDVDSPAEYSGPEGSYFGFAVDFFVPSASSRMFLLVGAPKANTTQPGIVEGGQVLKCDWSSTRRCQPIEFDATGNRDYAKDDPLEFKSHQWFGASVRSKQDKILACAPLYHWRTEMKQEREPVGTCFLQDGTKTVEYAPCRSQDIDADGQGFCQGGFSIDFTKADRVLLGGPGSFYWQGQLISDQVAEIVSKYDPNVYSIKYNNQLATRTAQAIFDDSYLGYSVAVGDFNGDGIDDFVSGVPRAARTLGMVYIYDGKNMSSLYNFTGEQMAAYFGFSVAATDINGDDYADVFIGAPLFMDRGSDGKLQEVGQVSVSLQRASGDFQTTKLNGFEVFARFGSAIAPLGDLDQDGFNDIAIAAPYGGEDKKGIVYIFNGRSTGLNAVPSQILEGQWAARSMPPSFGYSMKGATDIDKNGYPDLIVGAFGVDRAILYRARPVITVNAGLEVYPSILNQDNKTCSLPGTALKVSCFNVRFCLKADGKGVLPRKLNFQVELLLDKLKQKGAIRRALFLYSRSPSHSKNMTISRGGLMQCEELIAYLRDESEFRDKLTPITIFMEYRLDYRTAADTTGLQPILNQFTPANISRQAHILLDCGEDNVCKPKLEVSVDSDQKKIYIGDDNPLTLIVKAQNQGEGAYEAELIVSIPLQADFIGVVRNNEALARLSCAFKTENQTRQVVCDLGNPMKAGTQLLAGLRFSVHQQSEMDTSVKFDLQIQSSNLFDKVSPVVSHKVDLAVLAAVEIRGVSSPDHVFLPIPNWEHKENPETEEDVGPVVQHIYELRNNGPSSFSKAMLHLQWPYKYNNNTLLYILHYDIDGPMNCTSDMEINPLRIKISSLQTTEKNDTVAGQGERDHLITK
αvβ5 integrin, sequence (P06756 891-1048 limits assumed): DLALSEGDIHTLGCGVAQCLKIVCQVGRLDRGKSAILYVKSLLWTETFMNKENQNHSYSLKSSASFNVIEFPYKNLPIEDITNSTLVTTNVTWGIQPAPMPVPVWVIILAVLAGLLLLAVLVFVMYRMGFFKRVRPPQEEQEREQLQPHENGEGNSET
αvβ5 integrin, sequence (P18084 24-799): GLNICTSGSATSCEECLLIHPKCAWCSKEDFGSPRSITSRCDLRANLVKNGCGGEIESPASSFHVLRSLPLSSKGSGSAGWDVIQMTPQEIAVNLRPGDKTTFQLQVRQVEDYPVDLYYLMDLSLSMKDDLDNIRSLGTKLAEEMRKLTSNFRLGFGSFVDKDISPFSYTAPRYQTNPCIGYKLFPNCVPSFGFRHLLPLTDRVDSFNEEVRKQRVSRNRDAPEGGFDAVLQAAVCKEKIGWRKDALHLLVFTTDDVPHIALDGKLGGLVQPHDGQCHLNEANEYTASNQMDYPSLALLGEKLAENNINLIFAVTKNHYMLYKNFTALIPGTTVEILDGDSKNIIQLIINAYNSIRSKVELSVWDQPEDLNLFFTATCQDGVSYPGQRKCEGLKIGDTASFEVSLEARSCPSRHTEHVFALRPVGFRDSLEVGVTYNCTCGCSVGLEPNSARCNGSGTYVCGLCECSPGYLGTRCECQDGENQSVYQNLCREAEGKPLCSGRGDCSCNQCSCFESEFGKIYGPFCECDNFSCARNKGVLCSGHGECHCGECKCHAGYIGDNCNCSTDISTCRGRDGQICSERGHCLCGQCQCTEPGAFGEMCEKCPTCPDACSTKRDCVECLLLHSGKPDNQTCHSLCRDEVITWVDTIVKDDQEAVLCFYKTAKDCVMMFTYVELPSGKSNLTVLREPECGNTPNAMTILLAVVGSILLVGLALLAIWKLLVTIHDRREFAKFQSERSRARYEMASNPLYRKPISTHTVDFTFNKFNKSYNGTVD
The test system of another test is endothelial cells. In words: Adhesion of endothelial cells to wells coated with GST fusion proteins. It counts as cell-based, human. To be noted: coating 1, 5, 10 nM; 45 min. As to the method:
FIG. 10A: Affinity purified GST-fusion proteins were resolved on SDS±PAGE and stained with Coomassie Blue. FIG. 10B: Integrins were immobilized onto 96-well plates, and various GST-fusion proteins (ligands) were allowed to bind. Bound ligands were incubated with anti-GST antibodies, appropriate substrate added and the color intensity measured. OD values <0.05 were considered to be background binding. Data are expressed as mean±SD (n=4). FIG. 10C: Dose-dependent binding of αvβ3 integrin with recombinant GST-VCIP-RGD. FIGS. 10D-F: Representative photomicrographs of adhesion and spreading of endothelial cells replated onto dishes coated with either fibronectin (FIG. 9D), vitronectin (FIG. 9E) or GST-VCIP-RGD (FIG. 9F). […] Attached cells were stained, washed and absorbances of eluted dyes measured. […] Attached cells were stained, washed and absorbances of eluted dyes determined. […] Data are expressed as mean±S.D.; diamond, P<0.01; asterisk, P<0.001. […]
For adhesion blocking assays, endothelial cells were detached, washed with PBS and resuspended in M199 media containing 1 mM CaCl2 and 1 mM MgCl2 in the absence of serum or growth factors. […] Absorbances were measured at 540 nm.
Next, the capacity of VCIP-RGD to bind endothelial cell integrins was evaluated by determining the effect of GST-VCIP fusion proteins on cell adhesion and spreading.

In the next test the test system is αvβ3 and α5β1 integrins. Put plainly: GST pull-down from [35S]Cys/Met-labelled endothelial cell lysates. In kind it is binding, human. Particulars: 10 μg per 3 mg lysate.
Test [1] concerns Fak, Cas, Shc and paxillin. Put plainly: Tyrosine phosphorylation of focal adhesion proteins in replated HUVECs. It counts as cell-based, human. To be noted: HUVECs replated on coated dishes, 30 and 60 min. On the procedure: Dishes were coated with either fibronectin (Fn, 10 μg/ml), vitronectin (Vn, 10 μg/ml) or affinity purified GST-VCIP-RGD or -RGE fusion proteins (10 and 20 nM). Endothelial cells were detached, washed and maintained in suspension (Sus) for 30 min, then allowed to re-attach for 30 or 60 min. Adherent cells were solubilized in RIPA buffer. Blots shown are representative of those obtained in at least three separate experiments. FIGS. 11A-E: Equal amounts of protein (˜1.0 mg) from clarified extracts were subjected to immunoprecipitation (IP) followed by immunoblotting using the indicated antibodies. FIG. 11F: Equal amounts of protein from total lysates (35 μg/lane) were subjected to immunoblotting with the anti-phospho-Erk½ antibody. FIG. 11G: The same membrane was stripped and re-probed with an anti-Erk½ antibody, showing that equivalent amounts of proteins used across the lanes.
Serum- and growth factor-starved HUVECs were allowed to attach and spread on dishes coated with optimal concentrations of fibronectin, vitronectin, GST-RGD-VCIP and GST-VCIP-RGE. Cells were harvested after 30 and 60 min at 37° C. Cells were then solubilized, clarified, pre-adsorbed, immunoprecipitated and subjected to immunoblotting with various antibodies as shown in FIG. 11. […] Cells that were replated onto GST-VCIP-RGE appeared rounded.

αvβ3 integrin, sequence (P06756 31-889 limits assumed): as the sequence (P06756 31-889 limits assumed) above
αvβ3 integrin, sequence (P06756 891-1048 limits assumed): as the sequence (P06756 891-1048 limits assumed) above
αvβ3 integrin, sequence (P05106 27-788): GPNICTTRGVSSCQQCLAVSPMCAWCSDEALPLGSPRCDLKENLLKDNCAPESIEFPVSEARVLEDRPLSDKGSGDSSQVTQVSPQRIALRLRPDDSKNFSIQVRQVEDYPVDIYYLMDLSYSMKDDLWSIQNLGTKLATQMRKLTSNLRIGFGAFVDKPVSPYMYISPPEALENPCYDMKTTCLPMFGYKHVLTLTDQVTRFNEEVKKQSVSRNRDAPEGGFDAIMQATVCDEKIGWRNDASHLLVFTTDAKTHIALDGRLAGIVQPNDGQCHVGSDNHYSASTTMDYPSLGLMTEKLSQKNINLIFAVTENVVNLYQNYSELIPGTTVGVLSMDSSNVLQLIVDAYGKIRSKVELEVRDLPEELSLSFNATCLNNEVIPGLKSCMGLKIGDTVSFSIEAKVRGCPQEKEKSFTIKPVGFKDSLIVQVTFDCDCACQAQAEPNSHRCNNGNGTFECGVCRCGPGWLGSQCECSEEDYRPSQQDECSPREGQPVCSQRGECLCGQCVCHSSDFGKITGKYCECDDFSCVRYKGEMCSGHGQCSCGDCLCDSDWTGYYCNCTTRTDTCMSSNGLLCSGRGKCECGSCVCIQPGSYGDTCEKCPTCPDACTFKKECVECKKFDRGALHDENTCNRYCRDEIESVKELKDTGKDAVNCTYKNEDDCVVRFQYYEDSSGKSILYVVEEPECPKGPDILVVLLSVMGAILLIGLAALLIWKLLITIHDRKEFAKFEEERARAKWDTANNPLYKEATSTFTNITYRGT
α5β1 integrin, sequence (P08648 42-894 limits assumed): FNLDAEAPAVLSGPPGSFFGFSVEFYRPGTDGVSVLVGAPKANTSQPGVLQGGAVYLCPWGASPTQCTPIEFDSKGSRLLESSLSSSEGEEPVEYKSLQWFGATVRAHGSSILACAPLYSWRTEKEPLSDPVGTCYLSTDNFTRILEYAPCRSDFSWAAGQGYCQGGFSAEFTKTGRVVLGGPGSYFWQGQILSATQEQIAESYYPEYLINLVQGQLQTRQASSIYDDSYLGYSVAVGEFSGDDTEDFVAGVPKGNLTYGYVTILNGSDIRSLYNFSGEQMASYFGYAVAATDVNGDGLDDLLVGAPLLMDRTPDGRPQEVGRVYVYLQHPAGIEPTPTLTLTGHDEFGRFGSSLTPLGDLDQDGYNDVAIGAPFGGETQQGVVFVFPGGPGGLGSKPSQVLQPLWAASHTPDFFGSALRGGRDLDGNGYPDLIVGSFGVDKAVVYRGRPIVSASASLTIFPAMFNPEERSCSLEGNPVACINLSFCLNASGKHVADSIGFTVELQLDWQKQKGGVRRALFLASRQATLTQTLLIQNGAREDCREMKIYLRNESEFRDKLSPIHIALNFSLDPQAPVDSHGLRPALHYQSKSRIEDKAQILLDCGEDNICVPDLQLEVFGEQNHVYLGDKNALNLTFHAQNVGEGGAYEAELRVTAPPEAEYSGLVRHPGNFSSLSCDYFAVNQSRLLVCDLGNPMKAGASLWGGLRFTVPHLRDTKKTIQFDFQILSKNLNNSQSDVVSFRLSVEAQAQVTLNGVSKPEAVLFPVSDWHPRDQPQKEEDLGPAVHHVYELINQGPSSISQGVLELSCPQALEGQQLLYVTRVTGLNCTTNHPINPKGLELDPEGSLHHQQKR
α5β1 integrin, sequence (P08648 895-1049 limits assumed): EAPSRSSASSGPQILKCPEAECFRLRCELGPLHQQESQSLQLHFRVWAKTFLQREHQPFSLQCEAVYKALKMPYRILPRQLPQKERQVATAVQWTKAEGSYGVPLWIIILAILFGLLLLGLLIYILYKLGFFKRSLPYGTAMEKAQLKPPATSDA
α5β1 integrin, sequence (P05556 21-798): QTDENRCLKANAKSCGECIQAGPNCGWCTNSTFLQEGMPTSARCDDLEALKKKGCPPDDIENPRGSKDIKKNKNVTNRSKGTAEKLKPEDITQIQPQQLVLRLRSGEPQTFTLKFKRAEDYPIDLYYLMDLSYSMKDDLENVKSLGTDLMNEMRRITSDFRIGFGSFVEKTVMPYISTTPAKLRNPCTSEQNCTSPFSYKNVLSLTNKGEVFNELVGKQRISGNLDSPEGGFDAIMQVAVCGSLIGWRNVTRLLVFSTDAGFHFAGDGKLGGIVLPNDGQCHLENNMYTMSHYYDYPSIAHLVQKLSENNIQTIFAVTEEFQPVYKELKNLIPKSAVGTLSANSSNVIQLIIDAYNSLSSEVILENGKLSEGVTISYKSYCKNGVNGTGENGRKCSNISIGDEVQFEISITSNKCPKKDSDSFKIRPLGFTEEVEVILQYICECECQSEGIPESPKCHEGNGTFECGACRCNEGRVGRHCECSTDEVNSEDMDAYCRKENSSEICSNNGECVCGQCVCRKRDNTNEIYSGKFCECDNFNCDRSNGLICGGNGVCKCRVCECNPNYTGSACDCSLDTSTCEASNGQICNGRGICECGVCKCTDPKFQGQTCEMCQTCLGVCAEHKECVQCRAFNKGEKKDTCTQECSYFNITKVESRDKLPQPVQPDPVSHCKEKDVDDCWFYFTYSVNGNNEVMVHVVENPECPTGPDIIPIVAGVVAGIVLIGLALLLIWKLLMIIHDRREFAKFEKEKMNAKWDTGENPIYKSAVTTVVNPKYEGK

For the substance “GST-VCIP-RGD: recombinant GST fusion of 49 amino acid residues (145-194) of VCIP second extracellular loop, wild-type RGD (DIAKVSIGRLRPHFLSVCNPDFSQINCSEGYIQNYRCRGDDSKVQEARKS; cysteine pairing not given here; also: GST fusion)”, in the test with α2β1 integrin, the “interaction with α2β1 integrin” value is reported as “did not”. Also, in the test with α5β1 integrin, the “interaction with α5β1 integrin” value was “interacted”. In the test with αvβ3 integrin (FIG. 10C), the “dose-dependence of binding to αvβ3 integrin” value is “bound to αvβ3 integrin in a dose-dependent manner”. The “interaction with αvβ3 integrin” value in the test with αvβ3 integrin (immobilized integrin, GST-fusion ligand in solution) is recorded as “interacted”. In addition, the “interaction with αvβ5 integrin” value with αvβ5 integrin is on record as “did not”. In addition, the “adhesion of endothelial cells to coated wells” value in the test with endothelial cells was “comparable to that observed in wells coated with vitronectin and fibronectin substrates”. Moreover, the “integrins present in pull-down complex” value in the test with αvβ3 and α5β1 integrins was “contained anti-αvβ3 and -α5β1 immunoreactivities”. In addition, the “tyrosine phosphorylation of Fak, Cas, Shc and paxillin” value was “comparable to those induced by fibronectin and vitronectin” in test [1]; “induced tyrosine phosphorylation of Fak, Cas, Shc and paxillin at both 30 and 60 min” in test [1] (listed as VCIP-RGD).
